Reference: patent US20090162378A1

B1: HCMV-20 scFv antibody, purified His-tag fused polypeptide expressed in E. coli (scFv)
scFv: MAQVQLQESGPGLVKPSGTLSLTCAVSGGSISSSNWWSWVRQPPGKGLEWIGEIYHSGSTNYNPSLKSRVTISVDKSKNQFSLKLSSVTAADTAVYYCAREGSYEAFDYWGQGTLVTVSSGGGGSGGGGSGGGGSNFMLTQPHSVSESPGKTVTISCTRSSGSIASNYVQWYQQRPGSAPSTVIYDDNQRPSGVPDRFSGSIDSSSNSASLTISGLKTEDEADYYCQSYDSSNHGVVFGGGTKLTVLGAA
B2: HCMV-20 scFv antibody displayed on phage (positive phage clone from the mixed scFv phage display library) (scFv)
scFv: B1 scFv

Assays:
[1] = target: HCMV RC256 particles (human cytomegalovirus strain RC256) (human cytomegalovirus); test: cell-based or functional assay
[2] = target: HCMV RC256 particles (human cytomegalovirus strain RC256) (human cytomegalovirus); test: phage ELISA; plate coated with HCMV RC256 against a control plate coated with lysate of E. coli transfected with pET-22b; detection with HRP anti-M13

Row | Binder | plaque number, Test 1, 1.0 uM HCMV-20 (virus only: 152) [1] [plaques] | plaque number, Test 1, 2.0 uM HCMV-20 (virus only: 152) [1] [plaques] | plaque number, Test 1, 4.1 uM HCMV-20 (virus only: 152) [1] [plaques] | plaque number, Test 1, 8.1 uM HCMV-20 (virus only: 152) [1] [plaques] | plaque number, Test 1, 16.3 uM HCMV-20 (virus only: 152) [1] [plaques] | plaque number, Test 2, 1.0 uM HCMV-20 (virus only: 139) [1] [plaques] | plaque number, Test 2, 2.0 uM HCMV-20 (virus only: 139) [1] [plaques] | plaque number, Test 2, 4.1 uM HCMV-20 (virus only: 139) [1] [plaques] | plaque number, Test 2, 8.1 uM HCMV-20 (virus only: 139) [1] [plaques] | plaque number, Test 2, 16.3 uM HCMV-20 (virus only: 139) [1] [plaques] | HCMV/control (ELISA signal ratio) [2]
1 | B1 | 92 | 36 | 23 | 20 | 15 | 93 | 42 | 17 | 16 | 16 | 
2 | B2 |  |  |  |  |  |  |  |  |  |  | > 8
